Data from patent US20230295310A1 (ABCELLERA BIOLOGICS, published 2023).

Assays:
human CD3e/d = target: T1, human CD3e/d (human, UniProt P07766 23-126; P04234 22-105); assay: SPR (Carterra LSA), mAb on chip
T1 construct: Bought soluble protein; also called hCD3e/d; human CD3/ed (Sino CT038-H2508H)
Summary of the method: (§1)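 Purified mAbs amine-coupled (EDC/S-NHS) at 10 μg/mL in 10 mM NaOAc pH 4.25 onto an HC-30M chip, with benchmark and negative-control mAbs; analyte flowed over the array. Double-referenced sensorgrams fitted globally to a 1:1 Langmuir model for ka, kd and KD.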

human CD3e/g = target: T2, human CD3e/g (human, UniProt P07766 23-126; P09693 23-116); assay: SPR (Carterra LSA), mAb on chip
T2 construct: Bought soluble protein; also called hCD3e/g; human CD3e/g (Acro CDD-C52W4)
T2 sequence (P07766 23-126, chain 1 of 2): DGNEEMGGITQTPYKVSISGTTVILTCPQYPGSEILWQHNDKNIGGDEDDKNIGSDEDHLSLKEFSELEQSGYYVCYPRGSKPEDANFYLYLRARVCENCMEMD
T2 sequence (P09693 23-116, chain 2 of 2): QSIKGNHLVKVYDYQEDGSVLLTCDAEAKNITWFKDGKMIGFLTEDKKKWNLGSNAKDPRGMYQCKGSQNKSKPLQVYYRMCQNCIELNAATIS
Summary of the method: as §1

T1 sequence (P07766 23-126, chain 1 of 2): as the sequence (P07766 23-126, chain 1 of 2) above
T1 sequence (P04234 22-105, chain 2 of 2): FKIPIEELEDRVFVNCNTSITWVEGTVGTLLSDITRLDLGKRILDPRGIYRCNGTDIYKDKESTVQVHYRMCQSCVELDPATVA

Binder | Kd (human CD3e/d) [nM] | Kd (human CD3e/g) [nM]
mAb 204 (antibody, V domains shown, VH and VL only) VH: QVQLVESGGGVVQSGRSLRLSCAASGFTFSGYGMHWVRQAPGKGLEWVAIVYYDGKNKYYADSVKGRFTISRDNSKNTLYLQMNSLRAEDTAVYYCVRGEGYNWFDPWGQGTLVTVSS VL: EIVMTQSPATLSVSPGERATLSCRASQSVSSNLAWYQQKPGQVPRLLIYGASTRATGIPARFSGSGSGTQFTLTISSLQSEDFAVYYCQQYNNWPLTFGGGTKVEIK | 200 | 90
mAb 194 (antibody, V domains shown, VH and VL only) VH: QEQLVESGGGVVQPGGSLRLSCAASGFIFSGYGMHWVRQAPGKGLEWVAIIWYNGRKTYYAESVKGRFTISRDNSKNTLSLQMNSLRVEDTAVYYCTAGQGYNWFDPWGQGTLVTVSS VL: EIVMTQSPATLSVSPGERATLSCRASQSVSSNLAWYQQKPGQAPRLLIYGASTRATGIPARFSGSGSGTEFTLTISSLQSEDFAVYYCQQFNAWPLTFGGGTKMEIK | 19 | 12
mAb 65 (antibody, V domains shown, VH and VL only) VH: QVQLVESGGGVVQPGRSLRLSCAASGFTFSGYGMHWVRQAPGKGLDWVAIIYYNGNNKYYADSVKGRFTISRDNSKNTLYLQMNSLRAEDTAVYYCARGGGYNWFDPWGQGTLVIVSS VL: not shown | 128 | 101
mAb 195 (antibody, V domains shown, VH and VL only) VH: QEQLVESGGGVVQSGRSLRLSCVASGFKFSGYGMHWVRQAPGKGLEWVAIIYYDGKNKYYADSVKGRFTISRDNSKNTLYLQMNSLRAEDTAVYYCTRGAGYNWFDSWGQGTLVTVSS VL: EIVMTQSPATLSVSPGERATLSCRASQSVRNNLAWYQQKPGQAPRLLIYGVSTRATAFPARFSGSGSGTEFTLTISSLQSEDFAVYYCQQYNNWPLTFGGGTKVEIK | 11 | 7.1
mAb 206 (antibody, V domains shown, VH and VL only) VH: QVQLVESGGGVVQPGRSLRLSCAASGFTFSGYGMHWVRQAPGKGLEWVAIIYYNGNNRKYADSVKGRFTISRDNSKNTVSLQMNSLRVEDTAIYYCTRGDGYNWFVTWGQGTLVTVSS VL: EIVMTQSPATLSVSPGERATLSCRASQSVSSNLAWYHQKPGQAPRLLIYGASTRATGIPVRFSGSGSGTEFTLTISSLQSEDFAVYYCQQYNNWPLTFGGGTKVEIK | 73 | 33
mAb 218 (antibody, V domains shown, VH and VL only) VH: QVQLVESGGGVVQPGRSLRLSCAASGFTFSGYGMHWVRQAPGKGLEWVAIIYYNGNNRKYADSVRGRFTISRDNSKNTVSLQMNSLRVEDTAIYYCTRGDGYNWFVTWGQGTLVTVSS VL: EIVMTQSPATLSVSPGERATLSCRASQSVSSNLAWYYQKPGQAPRLLIYGASTRATGIPVRFSGSGSGTEFTLTISSLQSEDFAVYYCQQYNNWPLTFGGGTKVEIK | 62 | 34
mAb 226 (antibody, V domains shown, VH and VL only) VH: QVQLVESGGGVVQPGRSLRLSCAASGFTFSGYGMHWVRQAPGKGLEWVAIIYYNGNNRKYADSVKGRFTISRDNSKNTVSLQMNSLRVEDTAIYYCTRGDGYNWFVTWGQGTLVTVSS VL: EIVMTQSPATLSVSPGERATLSCRASQSISSNLAWYHQKPGQAPRLLIYGASTRATGIPVRFSGSGSGTEFTLTISSLQSEDFALYYCQQYNNWPLTFGGGTKVEIK | 75 | 32
mAb 196 (antibody, V domains shown, VH and VL only) VH: QEQLVESGGGVVQSGRSLRLSCVASGFKFSGYGMHWVRQAPGKGLEWVAIIYYDGKNKYYADSVKGRFTVSRDNSKNTLYLQMNSLRAEDTAVYYCTRGAGYNWFDSWGQGTLVTVSS VL: EIVMTQSPATLSVSPGERATLSCRASQSVRNNLAWYQQKPGQAPRLLIYGVSTRATAFPARFSGSGSGTEFTLTISSLQSEDFAVYYCQQYNNWPLTFGGGTKVEIK | 6.9 | 9.1
mAb 224 (antibody, V domains shown, VH and VL only) VH: QVQLVESGGGVVQPGRSLRLSCAASGFTFSGYGMHWVRQAPGKGLEWVAIIYYNGKKEYYADSVKGRFTISRDNSKNMLYLQMNGLRAEDTAIYYCTRGEGYNWFDPWGQGTLVTVSS VL: EIVMTQSPATLSVSPGERTTLSCRASQSVSNNLAWYQQKPGQAPRLLIYGASTRATGIPARFSGSGSGTEFTLTISSLQSEDFAVYYCQQYNNWPLTFGGGTKVEIK | 39 | 18
mAb 217 (antibody, V domains shown, VH and VL only) VH: QVQLVESGGGVVQPGRSLRLSCAASGFTFSGYGMHWVRQAPGKGLEWVAIIYYNGKKEYYADSVKGRFTIFRDNSKNTVYLQMKSLRAEDTAVYYCTRGEGYNWFDPWGQGTLVTVSS VL: not shown | 38 | 17
mAb 221 (antibody, V domains shown, VH and VL only) VH: QVQLVESGGGVVQPGGSLRLSCAASGFTFSGYGMHWVRQAPGKGLEWVAIIWYNGRKTYYAESVKGRFTISRDNSKNTLSLQMNSLRVEDTAVYYCTAGQGYNWFDPWGQGTLVTVSS VL: EIVMTQSPATLSVSPGERATLSCRASQSVSSNLAWYQQKPGQAPRLLIYGASTRATGIPARFSGSGSGTEFTLTISSLQSEDFAVYYCQQFNAWPLTFGGGTKMEIK | 38 | 25
mAb 222 (antibody, V domains shown, VH and VL only) VH: QVQLVESGGGVVQPGRSLRLSCAASGFTFSGYGMHWVRQAPGKGLEWVAIIYYNGKKEYYADSVKGRFTISRDNSKNTVYLQMNSLRAEDTAVYYCTRGEGYNWFDPWGQGTLVTVSS VL: KIVMTQSPATLSVSPGERATLSCRASQSVSSNLAWYQQKPGQAPRLLIYGASTRATGIPARFSGSGSGTEFTLTISSLQSEDFAVYYCKQYNNWPLTFGGGTKVEIK | 16 | 8.2

More lines, in order of falling Kd (human CD3e/d), values ahead:

Kd (human CD3e/d) [nM] | Kd (human CD3e/g) [nM] | Binder
553 | 83.2 | mAb 54 (antibody, V domains shown, VH and VL only) VH: EVQLEESGGGLVQPGGSLRLSCAASGFTFSRYSMNWVRQAPGKGLEWFSYISSSSRTIYYADSVKGRFTMSRDNAKNSLYLQMNSLRDEDTAVYFCARGDYYDSEGMDVWGKGTTVTVSS VL: DIQMTQSPSTLSASVGDRVTITCRASQTITTWLAWYQQKPGKAPKLLIYKASTLESGVPSRFSGSGSGTEFTLTISSLQPDDFATYHCQQYKTFSYTFGQGTKLDIK
120 | 59 | mAb 210 (antibody, V domains shown, VH and VL only) VH: QVQLVESGGGVVQPGRSLRLSCAASGFTFSGYGMHWVRQAPGKGLEWLAIIYYNGNNRKYADSVKGRFTISRDNSKNTVSLQMNSLRVEDTAMYYCTRGDGYNWFVTWGQGTLVTVSS VL: EIVMTQSPATLSVSPGERAALSCRASQSVTSNLAWYHQKPGQAPRLLIYGASTRATGIPVRFSGSGSGTEFTLTISSLQSEDFAVYYCQQYNNWPLTFGGGTKVENK
101 | 69.6 | mAb 81 (antibody, V domains shown, VH and VL only) VH: QVQLAESGGGVVQPGRSLRLSCAASGFTFSGYGMHWVRQAPGKGLDWVAIIYYDGKNKYYADSVKGRFTISRDNSKNTLYLQMNSLRAEDTAVYYCARGGGYNWFDPWGQGTLVTVSS VL: DIQMTQSPSSLSASVGDRVTITCRPSQTISNYLNWYQQDPGKAPKLLIYAASSLQSGVPSRFSGSGSGTDFTLTISSLQPEDFATYYCQQSYSTPITFGRGTRLEIK
93 | 29 | mAb 193 (antibody, V domains shown, VH and VL only) VH: QVQLVESGGGVVQPGRSLRLSCAASGFTFSGYGMHWVRQAPGKGLEWVAIIYYNGNNRKYADSVKGRFTISRDNSKNTVSLQMNSLRVEDTAIYYCTRGDGYNWFVTWGQGTLVTVSS VL: EIVMTQSPATLSVSPGERATLSCRASQSVSSNLAWYHQKPGQAPRLLIYGASTRATGIPVRFSGSGSGTEFTLTISSLQSDDFAVYYCQQYNNWPLTFGGGTKVEIK
86.5 | 53.4 | mAb 83 (antibody, V domains shown, VH and VL only) VH: QVQLVESGGGVVQPGRSLRLSCAASGFTFSGYGMHWVRQAPGKGLDWVAIIYYNGNNKYYADSVKGRFTISRDNSKNTLYLQMNSLRAEDTAVYYCARGGGYNWFDPWGQGTLVIVSS VL: DIQMTQSPSSLSASVGDRVTITCRPSQIIINYLNWYQQKPGKAPKLLIYAASSLQSGVPSRFSGSGSGTDFTLTISSLQPEDFATYYCQQSYSTPFTFGRGTRLEIK
76 | 34 | mAb 215 (antibody, V domains shown, VH and VL only) VH: QVQLVESGGGVVQPGRSLRLSCAATGFTFSGYGMHWVRQAPGKGLEWVAIIYYNGNNRKYADSVKGRFTISRDNSKNTVSLQMNSLRVEDTAIYYCTRGDGYNWFVTWGQGTLVTVSS VL: EIVMTQSPATLSVSPGERATLSCRASQSVSSNLAWYRQKPGQAPRLLIYGASTRATGIPVRFSGSGSGTEFTLTISSLQSEDFAVYYCQQYNNWPLTFGGGTKVEIK
13 | 8.4 | mAb 205 (antibody, V domains shown, VH and VL only) VH: QVQLVESGGGVVQPGKSLRLSCAASGFTFSGYGMHWVRQAPGKGLEWVAIIYYNGKKEYYADSVKGRFTISRDNSKNTLYLQMNSLRAEDTAVYYCTRGEGYNWFDPWGQGTLVTVSS VL: EIVMTQSPATLSVSPGERATLSCRASQSVSSNLAWYQQKPGQAPRLLIYGASTRATGIPARFSGSGSGTEFTLTISSLQSEDFAVYYCKQYNNWPLTFGGGTKVEIK
9.3 | 6.8 | mAb 216 (antibody, V domains shown, VH and VL only) VH: QVQLVESGGGVVQPGRSLRLSCAASGFTFSGYGMHWVRQAPGKGLEWVAIIYYNGKKEYYADSVKGRFTISRDNSKNTLYLQMNSLRAEDTAVYYCTRGEGYNWFDPWGQGTLVTVSS VL: EIVMTQSPATLSVSPGERATLSCRASQSVSSNLAWYQQKPGQAPRLLIYGASTRATGIPARFSGSGSGTEFTLTISSLQSEDFAVYYCKQYKNWPLTFGGGTKVEIK
5.5 | 5.7 | mAb 209 (antibody, V domains shown, VH and VL only) VH: QVQLVESGGGVVQPGRSLRLSCAASGFTFSGYGMHWVRQAPGKGLEWVAIIYYNGKKEYYADSVKGRFTVSRDNSKNMLYLQMNSLRAEDTAVYYCTRGEGYNWFDPWGQGTLVTVSS VL: EIVMTQSPATLSVSPGERATLSCRASQTVSSNLAWYQQKPGQAPRLLIYGASTRATGIPARFSGSGSGTEFTLTISSLQSEDFAVYYCKQYNNRPLTFGGGTKVEIK
